This note sets out measurements from patent US20210040193A1 (published 2021).

As usually defined, the EC50 is the concentration that produces a half-maximal response.

Experiment [1] concerns the target T1, Recombinant human PD-1 (Beijing Sino Biological Inc., Catalog No. 10377-H08H) (human, UniProt Q15116 25-167). The experiment is described as follows: ELISA; panel A. (In an ELISA, binding on a coated surface is turned into a signal by an enzyme label.)
Experiment [2] concerns the target T1, Recombinant human PD-1 (Beijing Sino …). The experiment is described as follows: ELISA; panel B.

T1 sequence (Q15116 25-167): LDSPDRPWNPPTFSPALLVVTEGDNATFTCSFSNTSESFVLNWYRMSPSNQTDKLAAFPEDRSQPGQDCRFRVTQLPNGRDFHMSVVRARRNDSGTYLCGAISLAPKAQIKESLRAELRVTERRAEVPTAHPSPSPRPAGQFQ

B1: PD-1 (BJHM) monoclonal antibody (antibody, V domains shown)
VH: EVNLVESGGGLVQPGGSLRLSCAASGFTFSSYGMSWVRQAPGKGLEWVASISGGGRYTYYPDSMKGRFTISRDNSKNNLYLQMNSLRAEDTAVYYCVYEYFYTMDYWGQGTLVTVSS
VL: DIVLTQSPATLSLSPGERATLSCRASQSISNNLHWYQQKPGQAPRLLIRFASQSISGIPARFSGSGSGTDFTLTISSLEPEDFAVYFCQQSDNWPLTFGGGTKVEIK
With B1, the EC50 in experiment [1] turned out to be 0.061 nM; in experiment [2] it was 0.04 nM.
